One molecule from patent publication US20200231681A1 (CHONG KUN DANG PHARMACEUTICAL, published 2020) can be followed below.

Assay [1] has as its target T1, human MSP R/Ron (R&D systems, 1947-MS-050) (human, UniProt Q04912 25-571, limits assumed). In words: indirect ELISA, hu8C4 at 0.240 nM. How it is done: (§1) Each antigen was diluted in 0.05 M carbonate-bicarbonate (Sigma, C3041) buffer at a concentration of 1 μg/ml, after which the resulting antigen was added into each well of a 96-well plate (Corning, #2592), such that the resulting plate was coated at 4° C. overnight. The plate was washed once with TBS-T, after which TBS-T containing 4%—skim milk was added by 200 μl into each well of the resulting plate in order to inhibit a non-specific binding, such that the resulting plate was reacted at 37° C. for 1 hour. Then, the plate was washed once with TBS-T buffer, after which a primary antibody was sequentially diluted in TBS-T buffer containing 2%—skim milk from a highest concentration of 30 nM to 0.002 nM, such that the resulting antibody was added by 100 μk into each well, thus being reacted at 37° C. for 2 hours. After being washed three times with TBS-T buffer, an anti-human kappa light chains-peroxidase (Sigma, A7164) was diluted at a ratio of 1:5000 as a secondary antibody, after which the resulting antibody was added by 100 μl into each well, thus being reacted at 37° C. for 1 hour. Then, after being washed three times with TBS-T buffer, TMB solution (Sigma, T4444) was added by 100 μl into each well to carry out an color developing reaction, after which 2 N […] solution was added by 50 μl into each well to stop the reaction. An optical density was measured based on a value at a wavelength of 450 nm by using a microplate reader and a reference wavelength of 570 nm was used.
For orientation: ELISA stands for enzyme-linked immunosorbent assay.

In assay [2] the target is T2, human PDGF Rβ Fc chimera (R&D systems, 385-PR_CF) (human, UniProt P09619 33-530). In words: indirect ELISA, hu8C4 at 0.240 nM. On the procedure: as §1
The target in assay [3] is T3, human VEGF R2 Fc chimera (R&D systems, 357-KD_CF) (human, UniProt P35968 20-764).
T3 construct: also called VEGFR R2
In words: indirect ELISA, hu8C4 at 0.240 nM. On the procedure:
as §1

For assay [4], the target named is T4, human IGF-I R (R&D systems, 391-GR-050) (human, UniProt P08069 31-932). The experiment in a line: indirect ELISA, hu8C4 at 0.240 nM. How it is done: as §1
The target of assay [5] is T5, mouse EGFR (SiNo. Biological Inc, 51091-M08H) (mouse, UniProt Q01279 25-647).
T5 construct: extracellular domain
The experiment in a line: ELISA, coated antigen 2 µg/ml. On the procedure: Particularly, mouse c-Met (SiNo. Biological Inc, 50622-M08H), cynomolgus monkey c-Met (SiNo. Biological Inc, 90304-CO8H), human c-Met (R&D Systems, 358-MT), mouse EGFR (SiNo. Biological Inc, 51091-M08H), cynomolgus monkey EGFR (SiNo. Biological, 90285-008B) and human EGFR (Abcam, 155639) antigens were all divided into a 96-well plate at a concentration of 2 μg/ml, after which the resulting plate was reacted at 4° C. overnight.
Color development was made by using TMB (Sigma, T4444) solution, wherein its value was measured at an optical density of 450 nm and its ELISA results are shown in FIG. 9.

Assay [6] concerns the target T2, human PDGF Rβ Fc chimera (R&D systems, …). The experiment in a line: indirect ELISA, hu8C4 at 0.010 nM. How it is done:
as §1

The target of assay [7] is T4, human IGF-I R (R&D systems, 391-GR-050). In words: indirect ELISA, hu8C4 at 0.010 nM. How it is done: as §1
Assay [8] deals with T1, human MSP R/Ron (R&D systems, …). The experiment in a line: indirect ELISA, hu8C4 at 0.048 nM. On the procedure:
as §1

For assay [9], the target named is T2, human PDGF Rβ Fc chimera (R&D systems, …). In words: indirect ELISA, hu8C4 at 0.048 nM. On the procedure:
as §1

Assay [10] has as its target T4, human IGF-I R (R&D systems, 391-GR-050). The experiment in a line: indirect ELISA, hu8C4 at 0.048 nM. How it is done: as §1
Assay [11] addresses T6, human c-Met Fc chimera (R&D systems, 358-MT_CF) (human, UniProt P08581 25-932).
T6 construct: extracellular domain; also called human c-Met (R&D Systems, 358-MT)
In words: indirect ELISA, hu8C4 at 0.048 nM. How it is done:
as §1

Assay [12] addresses T1, human MSP R/Ron (R&D systems, …). The experiment in a line: indirect ELISA, hu8C4 at 30.000 nM. On the procedure:
as §1

For assay [13], the target named is T2, human PDGF Rβ Fc chimera (R&D systems, …). In words: indirect ELISA, hu8C4 at 30.000 nM. How it is done:
as §1

Assay [14] concerns the target T4, human IGF-I R (R&D systems, 391-GR-050). The experiment in a line: indirect ELISA, hu8C4 at 30.000 nM. On the procedure: as §1
Assay [15] has as its target T1, human MSP R/Ron (R&D systems, …). The experiment in a line: indirect ELISA, hu8C4 at 0.002 nM. How it is done:
as §1

The target in assay [16] is T2, human PDGF Rβ Fc chimera (R&D systems, …). The experiment in a line: indirect ELISA, hu8C4 at 0.002 nM. On the procedure: as §1
Assay [17] concerns the target T3, human VEGF R2 Fc chimera (R&D systems, …). In words: indirect ELISA, hu8C4 at 0.002 nM. How it is done: as §1
Assay [18] deals with T4, human IGF-I R (R&D systems, 391-GR-050). The experiment in a line: indirect ELISA, hu8C4 at 0.002 nM. How it is done:
as §1

Assay [19] concerns the target T6, human c-Met Fc chimera (R&D systems, …). In words: indirect ELISA, hu8C4 at 0.002 nM. How it is done:
as §1

B1: hu8C4 (IgG1 humanized antibody having a hinge region of SEQ ID NO: 38 in hu8C4-1) (antibody, V domains shown)
VH: EVQLVESGGGLVQPGGSLRLSCAASGYTFSDYYINWVRQAPGKGLEWIGEIFPGSGNTHFSARFKGRATLSADKSKNTAYLQMNSLRAEDTAVYYCAGGDYGFLYWGQGTLVTVSS
VL: DIQMTQSPSSLSASVGDRVTITCGASENIYGALNWYQQKPGKAPKLLIYGATNLADGVPSRFSGSGSGRDFTFTISSLQPEDIATYYCQNVLSSPYTFGQGTKVEIK
notes: light chain detected with anti-human kappa; also called anti-c-Met antibody hu8C4; hu8C4 monospecific antibody
Consider B1, for which the “A450 nm-A570 nm” value in [1] was 0 A450 nm-A570 nm; in [2], -0.01 A450 nm-A570 nm; in assay [3], -0.02 A450 nm-A570 nm; in [4] it was 0 A450 nm-A570 nm; in [6], -0.01 A450 nm-A570 nm; in [7], 0 A450 nm-A570 nm. In addition, the “A450 nm-A570 nm” value was 0 A450 nm-A570 nm in [8]; -0.01 A450 nm-A570 nm in assay [9]; 0 A450 nm-A570 nm in [10]; 0.76 A450 nm-A570 nm in assay [11]; 0 A450 nm-A570 nm in [12]; 0.01 A450 nm-A570 nm in [13]. For the same molecule, the “A450 nm-A570 nm” value was 0 A450 nm-A570 nm in assay [14]; 0 A450 nm-A570 nm in assay [15]; -0.01 A450 nm-A570 nm in [16]; -0.01 A450 nm-A570 nm in [17]; 0 A450 nm-A570 nm in assay [18]; 0.05 A450 nm-A570 nm in [19]. The binding result in assay [5] is recorded as “no binding”.
